Columns and labels:
Details in all cases: both partners purified
[1] = biological target: T1, Homo sapiens CMG helicase (CDC45-MCM2-7-GINS) (human, UniProt P49736 1-904; P25205 1-808; P33991 1-863; P33992 1-734; Q14566 1-821; P33993 …); assay: co-IP; purified proteins mixed: 10 nM RTEL1-FLAG with 15 nM hsCMG, 10 min on ice; anti-FLAG M2 magnetic beads; 25 mM Hepes-KOH pH 7.6, 100 mM KOAc, 0.02% NP-40-S, 0.1 mg/mL BSA, 1 mM DTT, 10 mM Mg(OAc)2; immunoblotting
T1 construct: MCM2, human, subunit of CMG; MCM3, human, subunit of CMG; MCM4, human, subunit of CMG; MCM5, human, subunit of CMG; MCM6, human, subunit of CMG; MCM7, human, subunit of CMG; CDC45, human, subunit of CMG; SLD5 (GINS4), human, GINS subunit of CMG (PrA-3TEV-HsSld5; eluted from IgG Sepharose with TEV protease); PSF1 (GINS1), human, GINS subunit of CMG; PSF2 (GINS2), human, GINS subunit of CMG; PSF3 …

[2] = biological target: T2, GINS tetramer (Sld5, Psf1, Psf2, Psf3), S. cerevisiae (S. cerevisiae, UniProt Q03406 1-294; Q12488 1-208; P40359 1-213; Q12146 1-194); assay: co-IP; purified proteins mixed: 10 nM FLAG-Rrm3 with 15 nM GINS, 10 min on ice; anti-FLAG M2 magnetic beads; 25 mM Hepes-KOH pH 7.6, 200 mM KOAc, 0.02% NP-40-S, 0.1 mg/mL BSA, 1 mM DTT, 10 mM Mg(OAc)2; immunoblotting
T2 construct: Sld5, GINS subunit, S. cerevisiae; Psf1, GINS subunit, S. cerevisiae; Psf2, GINS subunit, S. cerevisiae; Psf3, GINS subunit, S. cerevisiae; pJL005 with TwinStrep-Psf3; also called tetrameric GINS complex; source: purified as previously described (Yeeles et al, 2015; Lewis et al, 2022); copies: + + +
T2 sequence (looked up) 1: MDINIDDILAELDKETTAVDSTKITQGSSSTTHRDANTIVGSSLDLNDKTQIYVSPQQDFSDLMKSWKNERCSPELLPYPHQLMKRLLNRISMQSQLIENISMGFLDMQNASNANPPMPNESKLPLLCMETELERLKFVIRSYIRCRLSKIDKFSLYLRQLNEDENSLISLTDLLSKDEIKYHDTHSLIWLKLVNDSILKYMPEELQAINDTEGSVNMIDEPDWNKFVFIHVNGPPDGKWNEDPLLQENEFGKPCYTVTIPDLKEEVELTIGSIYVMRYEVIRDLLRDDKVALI
T2 sequence (looked up) 2: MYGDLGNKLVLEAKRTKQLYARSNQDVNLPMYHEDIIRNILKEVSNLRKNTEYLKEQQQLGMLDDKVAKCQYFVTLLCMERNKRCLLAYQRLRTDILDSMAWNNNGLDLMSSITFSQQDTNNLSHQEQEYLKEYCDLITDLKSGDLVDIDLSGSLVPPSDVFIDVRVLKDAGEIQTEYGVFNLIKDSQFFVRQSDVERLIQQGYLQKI
T2 sequence (looked up) 3: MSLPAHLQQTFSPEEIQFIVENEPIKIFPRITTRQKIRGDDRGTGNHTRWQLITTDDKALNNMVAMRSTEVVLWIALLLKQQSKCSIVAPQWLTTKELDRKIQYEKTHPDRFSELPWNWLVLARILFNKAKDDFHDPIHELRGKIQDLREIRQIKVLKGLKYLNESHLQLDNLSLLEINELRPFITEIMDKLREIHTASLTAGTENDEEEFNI
T2 sequence (looked up) 4: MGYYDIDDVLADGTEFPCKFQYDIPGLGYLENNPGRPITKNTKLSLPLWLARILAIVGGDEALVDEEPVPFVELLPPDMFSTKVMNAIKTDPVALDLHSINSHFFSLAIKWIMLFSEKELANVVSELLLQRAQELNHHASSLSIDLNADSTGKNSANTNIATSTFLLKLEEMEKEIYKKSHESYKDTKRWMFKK

[3] = biological target: T3, DNA polymerase ε (Pol2, Dpb2, Dpb3, Dpb4), S. cerevisiae (S. cerevisiae, UniProt P21951 1-2222; P24482 1-689; P27344 1-201; Q04603 1-196); assay: co-IP; purified proteins mixed: 10 nM FLAG-Rrm3 with 15 nM Pol ε, 10 min on ice; anti-FLAG M2 magnetic beads; 25 mM Hepes-KOH pH 7.6, 400 mM KOAc, 0.02% NP-40-S, 0.1 mg/mL BSA, 1 mM DTT, 10 mM Mg(OAc)2; immunoblotting
T3 construct: Pol2, catalytic subunit of DNA polymerase ε, S. cerevisiae; Dpb2, second largest subunit of DNA polymerase ε, S. cerevisiae; Dpb3, subunit of DNA polymerase ε, S. cerevisiae; Dpb4, subunit of DNA polymerase ε, S. cerevisiae (DPB4-TEV-CBP); also called Polε; Pol ε; source: S. cerevisiae strain yAJ2, purified as previously described (Yeeles et al, 2015); copies: + + +
T3 sequence (P21951 whole entry, chain 1 of 4): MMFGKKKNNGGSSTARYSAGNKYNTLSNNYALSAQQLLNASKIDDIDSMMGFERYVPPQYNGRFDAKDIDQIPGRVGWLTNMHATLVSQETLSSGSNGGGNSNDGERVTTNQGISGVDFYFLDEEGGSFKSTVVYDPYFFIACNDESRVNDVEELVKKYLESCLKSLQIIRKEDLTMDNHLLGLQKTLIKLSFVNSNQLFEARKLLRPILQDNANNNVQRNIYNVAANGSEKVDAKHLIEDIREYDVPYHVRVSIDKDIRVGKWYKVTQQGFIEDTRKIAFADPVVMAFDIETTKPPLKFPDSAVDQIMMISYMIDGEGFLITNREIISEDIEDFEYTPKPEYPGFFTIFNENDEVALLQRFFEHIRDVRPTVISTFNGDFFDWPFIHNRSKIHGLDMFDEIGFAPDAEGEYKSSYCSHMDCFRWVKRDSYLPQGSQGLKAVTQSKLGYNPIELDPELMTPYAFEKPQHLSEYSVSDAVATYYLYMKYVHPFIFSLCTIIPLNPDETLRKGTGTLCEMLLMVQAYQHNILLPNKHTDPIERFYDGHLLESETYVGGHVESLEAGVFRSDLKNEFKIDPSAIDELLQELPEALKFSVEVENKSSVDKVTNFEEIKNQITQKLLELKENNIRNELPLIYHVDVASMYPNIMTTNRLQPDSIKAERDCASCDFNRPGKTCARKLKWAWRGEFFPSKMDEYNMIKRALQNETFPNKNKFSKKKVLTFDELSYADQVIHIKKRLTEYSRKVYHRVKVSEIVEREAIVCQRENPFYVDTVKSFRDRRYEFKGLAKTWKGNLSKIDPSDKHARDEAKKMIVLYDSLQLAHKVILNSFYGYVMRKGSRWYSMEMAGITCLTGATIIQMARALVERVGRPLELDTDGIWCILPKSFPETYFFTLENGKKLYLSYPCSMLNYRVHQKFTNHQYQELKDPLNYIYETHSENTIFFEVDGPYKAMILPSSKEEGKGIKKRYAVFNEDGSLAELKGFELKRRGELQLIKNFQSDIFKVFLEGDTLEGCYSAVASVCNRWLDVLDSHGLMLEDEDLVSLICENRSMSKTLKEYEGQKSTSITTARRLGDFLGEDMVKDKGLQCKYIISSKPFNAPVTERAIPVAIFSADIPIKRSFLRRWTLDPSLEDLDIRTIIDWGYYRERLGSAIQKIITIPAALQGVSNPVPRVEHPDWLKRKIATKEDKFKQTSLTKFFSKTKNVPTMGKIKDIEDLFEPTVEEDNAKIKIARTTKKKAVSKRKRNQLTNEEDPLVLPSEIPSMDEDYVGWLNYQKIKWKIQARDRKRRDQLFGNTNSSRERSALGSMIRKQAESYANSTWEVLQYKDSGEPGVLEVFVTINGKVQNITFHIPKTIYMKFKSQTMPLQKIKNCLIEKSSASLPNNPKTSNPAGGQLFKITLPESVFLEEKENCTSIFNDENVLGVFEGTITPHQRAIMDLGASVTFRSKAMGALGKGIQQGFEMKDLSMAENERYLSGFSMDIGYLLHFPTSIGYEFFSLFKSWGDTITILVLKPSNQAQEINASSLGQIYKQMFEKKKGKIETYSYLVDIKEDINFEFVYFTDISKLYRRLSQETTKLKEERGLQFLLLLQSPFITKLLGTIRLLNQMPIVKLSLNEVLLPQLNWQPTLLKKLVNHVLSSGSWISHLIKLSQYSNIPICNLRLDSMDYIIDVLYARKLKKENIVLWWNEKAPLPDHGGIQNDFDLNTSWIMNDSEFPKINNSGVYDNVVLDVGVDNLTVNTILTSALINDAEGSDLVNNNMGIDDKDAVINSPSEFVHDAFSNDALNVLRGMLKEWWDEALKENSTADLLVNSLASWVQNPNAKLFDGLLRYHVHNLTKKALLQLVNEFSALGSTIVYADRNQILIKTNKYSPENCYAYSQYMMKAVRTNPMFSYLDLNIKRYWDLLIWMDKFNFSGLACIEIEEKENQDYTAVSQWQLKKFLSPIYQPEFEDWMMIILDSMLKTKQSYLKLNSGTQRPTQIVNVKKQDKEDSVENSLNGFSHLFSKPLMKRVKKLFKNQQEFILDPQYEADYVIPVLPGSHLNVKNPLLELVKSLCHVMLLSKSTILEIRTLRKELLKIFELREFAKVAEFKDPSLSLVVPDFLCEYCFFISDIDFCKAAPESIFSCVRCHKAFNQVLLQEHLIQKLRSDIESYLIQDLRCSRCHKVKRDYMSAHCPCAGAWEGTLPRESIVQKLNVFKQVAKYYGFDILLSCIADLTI
T3 sequence (P24482 whole entry, chain 2 of 4): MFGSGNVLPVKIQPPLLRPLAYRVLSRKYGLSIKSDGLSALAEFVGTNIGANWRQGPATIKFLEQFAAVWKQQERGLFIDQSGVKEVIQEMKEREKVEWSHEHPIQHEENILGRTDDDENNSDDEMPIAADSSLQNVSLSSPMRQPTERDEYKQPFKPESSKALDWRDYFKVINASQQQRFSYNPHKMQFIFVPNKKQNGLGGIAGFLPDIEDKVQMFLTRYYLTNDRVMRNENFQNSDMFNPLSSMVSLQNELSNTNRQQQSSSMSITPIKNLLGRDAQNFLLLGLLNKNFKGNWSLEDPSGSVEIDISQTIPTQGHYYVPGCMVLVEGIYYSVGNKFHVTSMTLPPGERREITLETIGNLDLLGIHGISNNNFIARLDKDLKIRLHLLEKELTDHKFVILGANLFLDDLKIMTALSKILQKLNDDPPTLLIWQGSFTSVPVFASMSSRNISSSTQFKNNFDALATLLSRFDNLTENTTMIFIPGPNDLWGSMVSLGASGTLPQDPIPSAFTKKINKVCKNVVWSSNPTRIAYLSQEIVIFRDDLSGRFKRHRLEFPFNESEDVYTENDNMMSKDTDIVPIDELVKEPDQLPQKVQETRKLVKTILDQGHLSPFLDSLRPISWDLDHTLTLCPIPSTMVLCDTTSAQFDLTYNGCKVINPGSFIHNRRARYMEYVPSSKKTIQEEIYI
T3 sequence (P27344 whole entry, chain 3 of 4): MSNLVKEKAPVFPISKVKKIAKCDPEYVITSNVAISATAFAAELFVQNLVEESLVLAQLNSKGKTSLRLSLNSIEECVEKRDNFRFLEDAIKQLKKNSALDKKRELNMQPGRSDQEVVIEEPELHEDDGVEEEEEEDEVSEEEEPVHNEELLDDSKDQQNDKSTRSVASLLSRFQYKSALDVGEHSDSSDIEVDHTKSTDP
T3 sequence (Q04603 whole entry, chain 4 of 4): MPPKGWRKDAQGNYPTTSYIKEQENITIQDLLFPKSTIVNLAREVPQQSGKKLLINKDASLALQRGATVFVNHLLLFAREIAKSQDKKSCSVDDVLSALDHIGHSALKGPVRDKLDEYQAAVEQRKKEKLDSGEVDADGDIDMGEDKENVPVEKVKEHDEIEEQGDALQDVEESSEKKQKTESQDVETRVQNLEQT

Binder | binding result [2] | other results
Homo sapiens RTEL1 (wild-type, FLAG-tagged) (enzyme, human, UniProt Q9NZ71-1 1-1219, looked up, RTEL1, human; the models and residue numbers are of isoform 1 (NP_057518.1), printed to residue 1219; Plasmid pTD195; The isoform is printed for the AlphaFold models; the deletion mutants use the same numbering; also called hsRTEL1; RTEL1-2FLAG; source: S. cerevisiae strain yOO1, purified (anti-FLAG M2 resin, HiLoad Superdex 200); not shown: 2XFLAG, C-terminal, kept) MPKIVLNGVTVDFPFQPYKCQQEYMTKVLECLQQKVNGILESPTGTGKTLCLLCTTLAWREHLRDGISARKIAERAQGELFPDRALSSWGNAAAAAGDPIACYTDIPKIIYASRTHSQLTQVINELRNTSYRPKVCVLGSREQLCIHPEVKKQESNHLQIHLCRKKVASRSCHFYNNVEEKSLEQELASPILDIEDLVKSGSKHRVCPYYLSRNLKQQADIIFMPYNYLLDAKSRRAHNIDLKGTVVIFDEAHNVEKMCEESASFDLTPHDLASGLDVIDQVLEEQTKAAQQGEPHPEFSADSPSPGLNMELEDIAKLKMILLRLEGAIDAVELPGDDSGVTKPGSYIFELFAEAQITFQTKGCILDSLDQIIQHLAGRAGVFTNTAGLQKLADIIQIVFSVDPSEGSPGSPAGLGALQSYKVHIHPDAGHRRTAQRSDAWSTTAARKRGKVLSYWCFSPGHSMHELVRQGVRSLILTSGTLAPVSSFALEMQIPFPVCLENPHIIDKHQIWVGVVPRGPDGAQLSSAFDRRFSEECLSSLGKALGNIARVVPYGLLIFFPSYPVMEKSLEFWRARDLARKMEALKPLFVEPRSKGSFSETISAYYARVAAPGSTGATFLAVCRGKASEGLDFSDTNGRGVIVTGLPYPPRMDPRVVLKMQFLDEMKGQGGAGGQFLSGQEWYRQQASRAVNQAIGRVIRHRQDYGAVFLCDHRFAFADARAQLPSWVRPHVRVYDNFGHVIRDVAQFFRVAERTMPAPAPRATAPSVRGEDAVSEAKSPGPFFSTRKAKSLDLHVPSLKQRSSGSPAAGDPESSLCVEYEQEPVPARQRPRGLLAALEHSEQRAGSPGEEQAHSCSTLSLLSEKRPAEEPRGGRKKIRLVSHPEEPVAGAQTDRAKLFMVAVKQELSQANFATFTQALQDYKGSDDFAALAACLGPLFAEDPKKHNLLQGFYQFVRPHHKQQFEEVCIQLTGRGCGYRPEHSIPRRQRAQPVLDPTGRTAPDPKLTVSTAAAQQLDPQEHLNQGRPHLSPRPPPTGDPGSQPQWGSGVPRAGKQGQHAVSAYLADARRALGSAGCSQLLAALTAYKQDDDLDKVLAVLAALTTAKPEDFPLLHRFSMFVRPHHKQRFSQTCTDLTGRPYPGMEPPGPQEERLAVPPVLTHRAPQPGPSRSEKTGKTQSKISSFLRQRPAGTVGAGGEDAGPSQSSGPPHGPAASEWGL |  | binding result [1]: binds
Rrm3Δ86-110 (enzyme, S. cerevisiae, UniProt P38766 1-723, looked up, Plasmid pOO14; also called 3FLAG-TEV RRM3-∆86-110; source: S. cerevisiae strain yOO7, purified (anti-FLAG M2 resin, HiTrap heparin); not shown: 3FLAG, N-terminal, kept) MFRSHASGNKKQWSKRSSNGSTPAASASGSHAYRQQTLSSFFMGCGKKSAAASKNSTTIIDLESGDEGNRNITAPPRPRLIRNNSVPRLNSYKKSSRSLSMTSSLHKTASASTTQKTYHFDEDETLREVTSVKSNSRQLSFTSTINIEDSSMKLSTDSERPAKRSKPSMEFQGLKLTVPKKIKPLLRKTVSNMDSMNHRSASSPVVLTMEQERVVNLIVKKRTNVFYTGSAGTGKSVILQTIIRQLSSLYGKESIAITASTGLAAVTIGGSTLHKWSGIGIGNKTIDQLVKKIQSQKDLLAAWRYTKVLIIDEISMVDGNLLDKLEQIARRIRKNDDPFGGIQLVLTGDFFQLPPVAKKDEHNVVKFCFESEMWKRCIQKTILLTKVFRQQDNKLIDILNAIRYGELTVDIAKTIRNLNRDIDYADGIAPTELYATRREVELSNVKKLQSLPGDLYEFKAVDNAPERYQAILDSSLMVEKVVALKEDAQVMMLKNKPDVELVNGSLGKVLFFVTESLVVKMKEIYKIVDDEVVMDMRLVSRVIGNPLLKESKEFRQDLNARPLARLERLKILINYAVKISPHKEKFPYVRWTVGKNKYIHELMVPERFPIDIPRENVGLERTQIPLMLCWALSIHKAQGQTIQRLKVDLRRIFEAGQVYVALSRAVTMDTLQVLNFDPGKIRTNERVKDFYKRLETLK | binds | 
Rrm3-6A (Rrm3 F89A, Q93A, F96A, D99A, E104A, L108A) (enzyme, S. cerevisiae, UniProt P38766 1-723, looked up, Plasmid pOO16; also called 3FLAG-TEV-RRM3-6A; source: S. cerevisiae strain yOO8, purified (anti-FLAG M2 resin, HiTrap heparin); not shown: 3FLAG, N-terminal, kept) MFRSHASGNKKQWSKRSSNGSTPAASASGSHAYRQQTLSSFFMGCGKKSAAASKNSTTIIDLESGDEGNRNITAPPRPRLIRNNSSSLASQSAGSAGDADPDAAFKKAVDVPRLNSYKKSSRSLSMTSSLHKTASASTTQKTYHFDEDETLREVTSVKSNSRQLSFTSTINIEDSSMKLSTDSERPAKRSKPSMEFQGLKLTVPKKIKPLLRKTVSNMDSMNHRSASSPVVLTMEQERVVNLIVKKRTNVFYTGSAGTGKSVILQTIIRQLSSLYGKESIAITASTGLAAVTIGGSTLHKWSGIGIGNKTIDQLVKKIQSQKDLLAAWRYTKVLIIDEISMVDGNLLDKLEQIARRIRKNDDPFGGIQLVLTGDFFQLPPVAKKDEHNVVKFCFESEMWKRCIQKTILLTKVFRQQDNKLIDILNAIRYGELTVDIAKTIRNLNRDIDYADGIAPTELYATRREVELSNVKKLQSLPGDLYEFKAVDNAPERYQAILDSSLMVEKVVALKEDAQVMMLKNKPDVELVNGSLGKVLFFVTESLVVKMKEIYKIVDDEVVMDMRLVSRVIGNPLLKESKEFRQDLNARPLARLERLKILINYAVKISPHKEKFPYVRWTVGKNKYIHELMVPERFPIDIPRENVGLERTQIPLMLCWALSIHKAQGQTIQRLKVDLRRIFEAGQVYVALSRAVTMDTLQVLNFDPGKIRTNERVKDFYKRLETLK | binds | 
Rrm3-CR (Rrm3 F89D, Q93A, F96K, D99K, E104K) (enzyme, S. cerevisiae, UniProt P38766 1-723, looked up, Plasmid pOO15; also called 3FLAG-TEV-RRM3-CR; source: S. cerevisiae strain yOO9, purified (anti-FLAG M2 resin, HiTrap heparin); not shown: 3FLAG, N-terminal, kept) MFRSHASGNKKQWSKRSSNGSTPAASASGSHAYRQQTLSSFFMGCGKKSAAASKNSTTIIDLESGDEGNRNITAPPRPRLIRNNSSSLDSQSAGSKGDKDPDAKFKKLVDVPRLNSYKKSSRSLSMTSSLHKTASASTTQKTYHFDEDETLREVTSVKSNSRQLSFTSTINIEDSSMKLSTDSERPAKRSKPSMEFQGLKLTVPKKIKPLLRKTVSNMDSMNHRSASSPVVLTMEQERVVNLIVKKRTNVFYTGSAGTGKSVILQTIIRQLSSLYGKESIAITASTGLAAVTIGGSTLHKWSGIGIGNKTIDQLVKKIQSQKDLLAAWRYTKVLIIDEISMVDGNLLDKLEQIARRIRKNDDPFGGIQLVLTGDFFQLPPVAKKDEHNVVKFCFESEMWKRCIQKTILLTKVFRQQDNKLIDILNAIRYGELTVDIAKTIRNLNRDIDYADGIAPTELYATRREVELSNVKKLQSLPGDLYEFKAVDNAPERYQAILDSSLMVEKVVALKEDAQVMMLKNKPDVELVNGSLGKVLFFVTESLVVKMKEIYKIVDDEVVMDMRLVSRVIGNPLLKESKEFRQDLNARPLARLERLKILINYAVKISPHKEKFPYVRWTVGKNKYIHELMVPERFPIDIPRENVGLERTQIPLMLCWALSIHKAQGQTIQRLKVDLRRIFEAGQVYVALSRAVTMDTLQVLNFDPGKIRTNERVKDFYKRLETLK | binds | 
Rrm3Δ111-130 (enzyme, S. cerevisiae, UniProt P38766 1-723, looked up, Plasmid pOO10; source: S. cerevisiae strain yOO5, purified (anti-FLAG M2 resin, HiTrap heparin); not shown: 3FLAG, N-terminal, kept) MFRSHASGNKKQWSKRSSNGSTPAASASGSHAYRQQTLSSFFMGCGKKSAAASKNSTTIIDLESGDEGNRNITAPPRPRLIRNNSSSLFSQSQGSFGDDDPDAEFKKLVDHKTASASTTQKTYHFDEDETLREVTSVKSNSRQLSFTSTINIEDSSMKLSTDSERPAKRSKPSMEFQGLKLTVPKKIKPLLRKTVSNMDSMNHRSASSPVVLTMEQERVVNLIVKKRTNVFYTGSAGTGKSVILQTIIRQLSSLYGKESIAITASTGLAAVTIGGSTLHKWSGIGIGNKTIDQLVKKIQSQKDLLAAWRYTKVLIIDEISMVDGNLLDKLEQIARRIRKNDDPFGGIQLVLTGDFFQLPPVAKKDEHNVVKFCFESEMWKRCIQKTILLTKVFRQQDNKLIDILNAIRYGELTVDIAKTIRNLNRDIDYADGIAPTELYATRREVELSNVKKLQSLPGDLYEFKAVDNAPERYQAILDSSLMVEKVVALKEDAQVMMLKNKPDVELVNGSLGKVLFFVTESLVVKMKEIYKIVDDEVVMDMRLVSRVIGNPLLKESKEFRQDLNARPLARLERLKILINYAVKISPHKEKFPYVRWTVGKNKYIHELMVPERFPIDIPRENVGLERTQIPLMLCWALSIHKAQGQTIQRLKVDLRRIFEAGQVYVALSRAVTMDTLQVLNFDPGKIRTNERVKDFYKRLETLK |  | binding result [3]: binds

From paper PMC11405395 (The EMBO Journal, 2024)
